The target in the assay is T1, Npl4 (untagged, of the Ufd1/Npl4 cofactor complex) (S. cerevisiae, UniProt P33755 1-580).
T1 sequence: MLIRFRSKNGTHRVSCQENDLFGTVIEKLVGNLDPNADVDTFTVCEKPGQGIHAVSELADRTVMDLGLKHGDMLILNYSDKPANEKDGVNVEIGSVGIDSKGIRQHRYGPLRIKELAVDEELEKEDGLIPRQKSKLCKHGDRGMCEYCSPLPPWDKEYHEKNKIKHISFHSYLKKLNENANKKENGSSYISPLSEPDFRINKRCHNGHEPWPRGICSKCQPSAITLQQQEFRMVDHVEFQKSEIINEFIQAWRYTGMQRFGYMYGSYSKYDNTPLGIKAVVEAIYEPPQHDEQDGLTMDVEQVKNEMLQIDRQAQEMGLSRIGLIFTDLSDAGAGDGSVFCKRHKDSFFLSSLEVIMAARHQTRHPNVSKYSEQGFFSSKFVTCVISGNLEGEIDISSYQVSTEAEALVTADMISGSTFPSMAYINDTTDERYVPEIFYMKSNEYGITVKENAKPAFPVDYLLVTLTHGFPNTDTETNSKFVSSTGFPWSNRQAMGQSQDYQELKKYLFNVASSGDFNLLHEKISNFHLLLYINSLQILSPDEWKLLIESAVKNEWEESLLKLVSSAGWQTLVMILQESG
Description: cryo-EM structure.

B1: Ufd1 (untagged, of the Ufd1/Npl4 cofactor complex) (natural protein, S. cerevisiae, UniProt P53044 1-361, looked up)
chain: MFSGFSSFGGGNGFVNMPQTFEEFFRCYPIAMMNDRIRKDDANFGGKIFLPPSALSKLSMLNIRYPMLFKLTANETGRVTHGGVLEFIAEEGRVYLPQWMMETLGIQPGSLLQISSTDVPLGQFVKLEPQSVDFLDISDPKAVLENVLRNFSTLTVDDVIEISYNGKTFKIKILEVKPESSSKSICVIETDLVTDFAPPVGYVEPDYKALKAQQDKEKKNSFGKGQVLDPSVLGQGSMSTRIDYAGIANSSRNKLSKFVGQGQNISGKAPKAEPKQDIKDMKITFDGEPAKLDLPEGQLFFGFPMVLPKEDEESAAGSKSSEQNFQGQGISLRKSNKRKTKSDHDSSKSKAPKSPEVIEID
Regarding B1, the binding result is on record as “binds”.

The record behind these values is publication PMC6980381 (Science (New York, N.Y.), 2019).
